Assay results from patent US20260049138A1 (Chugai, published 2026).
Changes are numbered by the printed parent chain. Numbers in names are those of the source. Each block holds one binder with its values, some of them ahead of it.

Molecular target: T1, CD3ε homodimer protein (human, UniProt P07766 23-126, limits assumed)
T1 construct: also called CD3 (CD3ε)
Assay: SPR Biacore T200, CD3ε homodimer on chip;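 further: Light-chain single-residue variant antibodies injected over amine-coupled CD3ε homodimer on a CM4 chip at 25 °C, bound amount divided by that of the GLS3000-containing antibody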

T1 sequence (P07766 23-126 limits assumed): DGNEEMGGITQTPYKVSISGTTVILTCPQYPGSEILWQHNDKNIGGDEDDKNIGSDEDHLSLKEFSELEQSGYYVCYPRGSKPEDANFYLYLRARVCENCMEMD

ratio of amount bound vs unaltered GLS3000: 1.55
B3: GLS3000 S27eW one-arm antibody (antibody, human IgG1, kappa, L234A L235A, N297A, name in Kabat numbering)
heavy: QVQLVESGGGVVQPGRSLRLSCAASGFTFSNAWMHWVRQAPGKGLEWVAQIKAKSNNYATYYAESVKGRFTISRDDSKNSLYLQMNSLKTEDTAVYYCRYVHYGAYYGVDAWGQGTTVTVSSASTKGPSVFPLAPSSKSTSGGTAALGCLVKDYFPEPVTVSWNSGALTSGVHTFPAVLQSSGLYSLSSVVTVPSSSLGTQTYICNVNHKPSNTKVDKKVEPKSCDKTHTCPPCPAPEAAGGPSVFLFPPKPKDTLMISRTPEVTCVVVDVSHEDPEVKFNWYVDGVEVHNAKTKPREEQYASTYRVVSVLTVLHQDWLNGKEYKCKVSNKALPAPIEKTISKAKGQPREPQVYTLPPSRCELTKNQVSLSCAVKGFYPSDIAVEWESNGQPENNYKTTPPVLDSDGSFFLVSKLTVDKSRWQQGNVFSCSVMHEALHNHYTQKSLSLSPDYKDDDDK
chain: EPKSSDKTHTCPPCPAPELLGGPSVFLFPPKPKDTLMISRTPEVTCVVVDVSHEDPEVKFNWYVDGVEVHNAKTKPREEQYNSTYRVVSVLTVLHQDWLNGKEYKCKVSNKALPAPIEKTISKAKGQPREPQVCTLPPSRDELTKNQVSLWCLVKGFYPSDIAVEWESNGQPENNYKTTPPVLDSDGSFFLYSKLTVDKSRWQQGNVFSCSVMHEALHNRYTQKSLSLSP
light: DIVMTQSPLSLPVTPGEPASISCRSSQSLVHWNRNTYLHWYQQKPGQAPRLLIYKVSNRFSGVPDRFSGSGSGTDFTLKISRVEAEDVGVYYCGQGTQVPYTFGQGTKLEIKRTVAAPSVFIFPPSDEQLKSGTASVVCLLNNFYPREAKVQWKVDNALQSGNSQESVTEQDSKDSTYSLSSTLTLSKADYEKHKVYACEVTHQGLSSPVTKSFNRGEC

ratio of amount bound vs unaltered GLS3000: 1.05
B4: GLS3000 S52Q one-arm antibody (antibody, human IgG1, kappa, L234A L235A, N297A, name in Kabat numbering)
heavy: B3 heavy
chain: B3 chain
light: B3 light with W32S, S57Q

ratio of amount bound vs unaltered GLS3000: 1.12
B6: GLS3000 S52Y one-arm antibody (antibody, human IgG1, kappa, L234A L235A, N297A, name in Kabat numbering)
heavy: B3 heavy
chain: B3 chain
light: B3 light with W32S, S57Y

ratio of amount bound vs unaltered GLS3000: 0.71
B8: GLS3000 S56E one-arm antibody (antibody, human IgG1, kappa, L234A L235A, N297A, name in Kabat numbering)
heavy: B3 heavy
chain: B3 chain
light: B3 light with W32S, S61E

ratio of amount bound vs unaltered GLS3000: 0.63
B10: GLS3000 S52D one-arm antibody (antibody, human IgG1, kappa, L234A L235A, N297A, name in Kabat numbering)
heavy: B3 heavy
chain: B3 chain
light: B3 light with W32S, S57D

ratio of amount bound vs unaltered GLS3000: 0.33
B14: GLS3000 S52P one-arm antibody (antibody, human IgG1, kappa, L234A L235A, N297A, name in Kabat numbering)
heavy: B3 heavy
chain: B3 chain
light: B3 light with W32S, S57P

ratio of amount bound vs unaltered GLS3000: 1.16
B19: GLS3000 S56A one-arm antibody (antibody, human IgG1, kappa, L234A L235A, N297A, name in Kabat numbering)
heavy: B3 heavy
chain: B3 chain
light: B3 light with W32S, S61A

ratio of amount bound vs unaltered GLS3000: 0.93
B20: GLS3000 S52A one-arm antibody (antibody, human IgG1, kappa, L234A L235A, N297A, name in Kabat numbering)
heavy: B3 heavy
chain: B3 chain
light: B3 light with W32S, S57A

ratio of amount bound vs unaltered GLS3000: 1.32
B21: GLS3000 S56F one-arm antibody (antibody, human IgG1, kappa, L234A L235A, N297A, name in Kabat numbering)
heavy: B3 heavy
chain: B3 chain
light: B3 light with W32S, S61F

ratio of amount bound vs unaltered GLS3000: 1.08
B24: GLS3000 S27eV one-arm antibody (antibody, human IgG1, kappa, L234A L235A, N297A, name in Kabat numbering)
heavy: B3 heavy
chain: B3 chain
light: B3 light with W32V

ratio of amount bound vs unaltered GLS3000: 1.2
B26: GLS3000 S27eY one-arm antibody (antibody, human IgG1, kappa, L234A L235A, N297A, name in Kabat numbering)
heavy: B3 heavy
chain: B3 chain
light: B3 light with W32Y

ratio of amount bound vs unaltered GLS3000: 0.77
B31: GLS3000 S56D one-arm antibody (antibody, human IgG1, kappa, L234A L235A, N297A, name in Kabat numbering)
heavy: B3 heavy
chain: B3 chain
light: B3 light with W32S, S61D

The remaining lines, values behind:

B1: GLS3000 S27aD one-arm antibody (antibody, human IgG1, kappa, L234A L235A, N297A, name in Kabat numbering)
heavy: B3 heavy
chain: B3 chain
light: B3 light with S28D, W32S
ratio of amount bound vs unaltered GLS3000: 0.79

B2: GLS3000 S27eI one-arm antibody (antibody, human IgG1, kappa, L234A L235A, N297A, name in Kabat numbering)
heavy: B3 heavy
chain: B3 chain
light: B3 light with W32I
ratio of amount bound vs unaltered GLS3000: 1.07

B5: GLS3000 S27eL one-arm antibody (antibody, human IgG1, kappa, L234A L235A, N297A, name in Kabat numbering)
heavy: B3 heavy
chain: B3 chain
light: B3 light with W32L
ratio of amount bound vs unaltered GLS3000: 1.17

B7: GLS3000 S27aE one-arm antibody (antibody, human IgG1, kappa, L234A L235A, N297A, name in Kabat numbering)
heavy: B3 heavy
chain: B3 chain
light: B3 light with S28E, W32S
ratio of amount bound vs unaltered GLS3000: 0.81

B9: GLS3000 S27aP one-arm antibody (antibody, human IgG1, kappa, L234A L235A, N297A, name in Kabat numbering)
heavy: B3 heavy
chain: B3 chain
light: B3 light with S28P, W32S
ratio of amount bound vs unaltered GLS3000: 0.99

B11: GLS3000 S27eK one-arm antibody (antibody, human IgG1, kappa, L234A L235A, N297A, name in Kabat numbering)
heavy: B3 heavy
chain: B3 chain
light: B3 light with W32K
ratio of amount bound vs unaltered GLS3000: 1.59

B12: GLS3000 S27eT one-arm antibody (antibody, human IgG1, kappa, L234A L235A, N297A, name in Kabat numbering)
heavy: B3 heavy
chain: B3 chain
light: B3 light with W32T
ratio of amount bound vs unaltered GLS3000: 0.97

B13: GLS3000 S27eH one-arm antibody (antibody, human IgG1, kappa, L234A L235A, N297A, name in Kabat numbering)
heavy: B3 heavy
chain: B3 chain
light: B3 light with W32H
ratio of amount bound vs unaltered GLS3000: 1.23

B15: GLS3000 S27eD one-arm antibody (antibody, human IgG1, kappa, L234A L235A, N297A, name in Kabat numbering)
heavy: B3 heavy
chain: B3 chain
light: B3 light with W32D
ratio of amount bound vs unaltered GLS3000: 0.69

B16: GLS3000 S27eF one-arm antibody (antibody, human IgG1, kappa, L234A L235A, N297A, name in Kabat numbering)
heavy: B3 heavy
chain: B3 chain
light: B3 light with W32F
ratio of amount bound vs unaltered GLS3000: 1.32

B17: GLS3000 S27eR one-arm antibody (antibody, human IgG1, kappa, L234A L235A, N297A, name in Kabat numbering)
heavy: B3 heavy
chain: B3 chain
light: B3 light with W32R
ratio of amount bound vs unaltered GLS3000: 1.58

B18: GLS3000 S27aY one-arm antibody (antibody, human IgG1, kappa, L234A L235A, N297A, name in Kabat numbering)
heavy: B3 heavy
chain: B3 chain
light: B3 light with S28Y, W32S
ratio of amount bound vs unaltered GLS3000: 1.1

B22: GLS3000 S27eA one-arm antibody (antibody, human IgG1, kappa, L234A L235A, N297A, name in Kabat numbering)
heavy: B3 heavy
chain: B3 chain
light: B3 light with W32A
ratio of amount bound vs unaltered GLS3000: 1.03

B23: GLS3000 S27eE one-arm antibody (antibody, human IgG1, kappa, L234A L235A, N297A, name in Kabat numbering)
heavy: B3 heavy
chain: B3 chain
light: B3 light with W32E
ratio of amount bound vs unaltered GLS3000: 0.76

B25: GLS3000 S27eP one-arm antibody (antibody, human IgG1, kappa, L234A L235A, N297A, name in Kabat numbering)
heavy: B3 heavy
chain: B3 chain
light: B3 light with W32P
ratio of amount bound vs unaltered GLS3000: 1.26

B27: GLS3000 S27aG one-arm antibody (antibody, human IgG1, kappa, L234A L235A, N297A, name in Kabat numbering)
heavy: B3 heavy
chain: B3 chain
light: B3 light with S28G, W32S
ratio of amount bound vs unaltered GLS3000: 1.03

B28: GLS3000 S27aI one-arm antibody (antibody, human IgG1, kappa, L234A L235A, N297A, name in Kabat numbering)
heavy: B3 heavy
chain: B3 chain
light: B3 light with S28I, W32S
ratio of amount bound vs unaltered GLS3000: 1

B29: GLS3000 S27eN one-arm antibody (antibody, human IgG1, kappa, L234A L235A, N297A, name in Kabat numbering)
heavy: B3 heavy
chain: B3 chain
light: B3 light with W32N
ratio of amount bound vs unaltered GLS3000: 1.16

B30: GLS3000 S27eM one-arm antibody (antibody, human IgG1, kappa, L234A L235A, N297A, name in Kabat numbering)
heavy: B3 heavy
chain: B3 chain
light: B3 light with W32M
ratio of amount bound vs unaltered GLS3000: 1.23

B32: GLS3000 S27eQ one-arm antibody (antibody, human IgG1, kappa, L234A L235A, N297A, name in Kabat numbering)
heavy: B3 heavy
chain: B3 chain
light: B3 light with W32Q
ratio of amount bound vs unaltered GLS3000: 1.1

B33: GLS3000 S27eG one-arm antibody (antibody, human IgG1, kappa, L234A L235A, N297A, name in Kabat numbering)
heavy: B3 heavy
chain: B3 chain
light: B3 light with W32G
ratio of amount bound vs unaltered GLS3000: 1.04

B34: GLS3000 S27aN one-arm antibody (antibody, human IgG1, kappa, L234A L235A, N297A, name in Kabat numbering)
heavy: B3 heavy
chain: B3 chain
light: B3 light with S28N, W32S
ratio of amount bound vs unaltered GLS3000: 1.1
